Assay results from patent publication US20150037348A1 (AbbVie / Abbott, published 2015).

Columns and labels:
[1] = target: T1, human IL-12 (human, UniProt P29459 23-219; P29460 23-328); test: RB assay: 125I-hIL-12 binding to PHA blasts
T1 construct: recombinant human IL-12 heterodimer (p35/p40, disulfide-linked); also called hIL-12; rhIL-12
T1 sequence (looked up) 1: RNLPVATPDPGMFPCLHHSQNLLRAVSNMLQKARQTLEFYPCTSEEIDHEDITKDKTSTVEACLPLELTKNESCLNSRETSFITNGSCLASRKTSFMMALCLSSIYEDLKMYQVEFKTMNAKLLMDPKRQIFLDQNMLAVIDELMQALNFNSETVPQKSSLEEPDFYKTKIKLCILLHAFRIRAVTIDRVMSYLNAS
T1 sequence (looked up) 2: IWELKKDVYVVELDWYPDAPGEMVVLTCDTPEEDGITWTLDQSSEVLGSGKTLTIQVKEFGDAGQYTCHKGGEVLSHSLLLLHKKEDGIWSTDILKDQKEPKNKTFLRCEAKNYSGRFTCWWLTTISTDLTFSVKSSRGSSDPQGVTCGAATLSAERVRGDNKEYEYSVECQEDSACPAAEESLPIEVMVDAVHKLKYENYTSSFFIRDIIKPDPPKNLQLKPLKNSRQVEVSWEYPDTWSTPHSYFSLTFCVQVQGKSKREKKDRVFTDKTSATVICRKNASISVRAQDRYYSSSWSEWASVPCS
Procedure: PHA blast cells isolated as described above, were washed once and resuspended in binding buffer to a cell density of 2×10⁷ cells/ml. […] The cell pellet was examined for cell bound radioactivity using a gamma counter. […] Incubations were carried out in duplicate.

[2] = target: T1, human IL-12; test: SPR (BIAcore), IL-12 chip
Description: The system utilizes the optical properties of SPR to detect alterations in protein concentrations within a dextran biosensor matrix. Proteins are covalently bound to the dextran matrix at known concentrations. […] To determine the off rate (koff), on rate (kₒₙ), association rate (Ka) and dissociation rate (Kd) constants, BIAcore kinetic evaluation software (version 2.1) was used.

[3] = target: T1, human IL-12; test: cell-based or functional assay
[4] = target: T2, human interleukin 12 (p70 heterodimer of p35 and p40) (human, UniProt P29459 23-219; P29460 23-328); test: BIAcore
T2 construct: Recombinant human IL-12; p35 and p40 linked by a disulfide bridge; also called hIL-12; IL-12
T2 sequence (looked up) 1: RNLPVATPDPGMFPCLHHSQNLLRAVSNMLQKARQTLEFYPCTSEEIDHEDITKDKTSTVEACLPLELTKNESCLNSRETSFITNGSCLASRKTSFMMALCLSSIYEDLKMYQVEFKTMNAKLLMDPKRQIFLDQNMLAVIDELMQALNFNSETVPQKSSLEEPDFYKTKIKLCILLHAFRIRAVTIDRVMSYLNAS
T2 sequence (looked up) 2: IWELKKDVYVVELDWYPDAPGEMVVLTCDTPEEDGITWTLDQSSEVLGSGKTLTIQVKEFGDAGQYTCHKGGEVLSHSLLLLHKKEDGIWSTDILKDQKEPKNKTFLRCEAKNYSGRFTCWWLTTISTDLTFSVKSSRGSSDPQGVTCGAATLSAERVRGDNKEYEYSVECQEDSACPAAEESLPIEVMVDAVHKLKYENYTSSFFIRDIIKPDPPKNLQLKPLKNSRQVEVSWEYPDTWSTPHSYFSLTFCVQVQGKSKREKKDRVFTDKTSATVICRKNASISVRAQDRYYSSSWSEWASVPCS

| Binder | koff [4] [s⁻¹] | other results |
| --- | --- | --- |
| 149-5 (scFv, V domains shown, scFv) VH: QVQLVQSGGGVVQPGRSLRLSCAASGFTFSSYGMHWVRQAPGKGLEWVAFIRYDGSNKYYADSVKGRFTISRDNSKNTLYLQMKSLRAEDTAVYYCTTHGSHDTWGQGTMVTVSS VL: SYVLTQPPSVSGTPGQRVTISCSGGRSNIGSNTVKWYQQLPGTAPKLLIYGNDQRPSGVPDRFSGSKSGTSASLAITGVQAEDEADYYCQSYDSSLWGTRVFGTGTKVTVLG |  | IC50 [1]: 0.12 nM; koff [2]: 0.00102 s⁻¹; PHA assay IC50 [3]: 3 nM |
| Y61-L30K (scFv, V domains shown, copies: 1 + 1) VH: QVQLVQSGGGVVQPGRSLRLSCAASGFTFSSYGMHWVRQAPGKGLEWVAFIRYDGSNKYYADSVKGRFTISRDNSKNTLYLQMKSLRAEDTAVYYCKTHGSHDNWGQGTMVTVSS VL: SYVLTQPPSVSGTPGQRVTISCSGGRSNIGKNTVKWYQQLPGTAPKLLIYGNDQRPSGVPDRFSGSKSGTSASLAITGVQAEDEADYYCQSYDRGTHPALLFGTGTKVTVL | 0.000346 |  |
| Y61-L30R (scFv, V domains shown, copies: 1 + 1) VH: QVQLVQSGGGVVQPGRSLRLSCAASGFTFSSYGMHWVRQAPGKGLEWVAFIRYDGSNKYYADSVKGRFTISRDNSKNTLYLQMKSLRAEDTAVYYCKTHGSHDNWGQGTMVTVSS VL: SYVLTQPPSVSGTPGQRVTISCSGGRSNIGRNTVKWYQQLPGTAPKLLIYGNDQRPSGVPDRFSGSKSGTSASLAITGVQAEDEADYYCQSYDRGTHPALLFGTGTKVTVL | 0.000182 |  |
| Y61-L30D (scFv, V domains shown, copies: 1 + 1) VH: QVQLVQSGGGVVQPGRSLRLSCAASGFTFSSYGMHWVRQAPGKGLEWVAFIRYDGSNKYYADSVKGRFTISRDNSKNTLYLQMKSLRAEDTAVYYCKTHGSHDNWGQGTMVTVSS VL: SYVLTQPPSVSGTPGQRVTISCSGGRSNIGDNTVKWYQQLPGTAPKLLIYGNDQRPSGVPDRFSGSKSGTSASLAITGVQAEDEADYYCQSYDRGTHPALLFGTGTKVTVL | 0.00022 |  |
| Y61-L30C (scFv, V domains shown, copies: 1 + 1) VH: QVQLVQSGGGVVQPGRSLRLSCAASGFTFSSYGMHWVRQAPGKGLEWVAFIRYDGSNKYYADSVKGRFTISRDNSKNTLYLQMKSLRAEDTAVYYCKTHGSHDNWGQGTMVTVSS VL: SYVLTQPPSVSGTPGQRVTISCSGGRSNIGCNTVKWYQQLPGTAPKLLIYGNDQRPSGVPDRFSGSKSGTSASLAITGVQAEDEADYYCQSYDRGTHPALLFGTGTKVTVL | 0.000186 |  |
| Y61-L30N (scFv, V domains shown, copies: 1 + 1) VH: QVQLVQSGGGVVQPGRSLRLSCAASGFTFSSYGMHWVRQAPGKGLEWVAFIRYDGSNKYYADSVKGRFTISRDNSKNTLYLQMKSLRAEDTAVYYCKTHGSHDNWGQGTMVTVSS VL: SYVLTQPPSVSGTPGQRVTISCSGGRSNIGNNTVKWYQQLPGTAPKLLIYGNDQRPSGVPDRFSGSKSGTSASLAITGVQAEDEADYYCQSYDRGTHPALLFGTGTKVTVL | 0.000166 |  |
| Y61-L30Y (scFv, V domains shown, copies: 1 + 1) VH: QVQLVQSGGGVVQPGRSLRLSCAASGFTFSSYGMHWVRQAPGKGLEWVAFIRYDGSNKYYADSVKGRFTISRDNSKNTLYLQMKSLRAEDTAVYYCKTHGSHDNWGQGTMVTVSS VL: SYVLTQPPSVSGTPGQRVTISCSGGRSNIGYNTVKWYQQLPGTAPKLLIYGNDQRPSGVPDRFSGSKSGTSASLAITGVQAEDEADYYCQSYDRGTHPALLFGTGTKVTVL | 0.000483 |  |
